# Assay results from publication PMC4860835, “ALG-2 activates the MVB sorting function of ALIX through relieving its intramolecular interaction” (Cell Discovery, 2015).
# T1: ALIX (endogenous, HEK293 cells) (human (endogenous in HEK293), UniProt Q8WUM4 1-868)
# T1 construct: also called cytosolic ALIX; AIP1
# T1 sequence (looked up): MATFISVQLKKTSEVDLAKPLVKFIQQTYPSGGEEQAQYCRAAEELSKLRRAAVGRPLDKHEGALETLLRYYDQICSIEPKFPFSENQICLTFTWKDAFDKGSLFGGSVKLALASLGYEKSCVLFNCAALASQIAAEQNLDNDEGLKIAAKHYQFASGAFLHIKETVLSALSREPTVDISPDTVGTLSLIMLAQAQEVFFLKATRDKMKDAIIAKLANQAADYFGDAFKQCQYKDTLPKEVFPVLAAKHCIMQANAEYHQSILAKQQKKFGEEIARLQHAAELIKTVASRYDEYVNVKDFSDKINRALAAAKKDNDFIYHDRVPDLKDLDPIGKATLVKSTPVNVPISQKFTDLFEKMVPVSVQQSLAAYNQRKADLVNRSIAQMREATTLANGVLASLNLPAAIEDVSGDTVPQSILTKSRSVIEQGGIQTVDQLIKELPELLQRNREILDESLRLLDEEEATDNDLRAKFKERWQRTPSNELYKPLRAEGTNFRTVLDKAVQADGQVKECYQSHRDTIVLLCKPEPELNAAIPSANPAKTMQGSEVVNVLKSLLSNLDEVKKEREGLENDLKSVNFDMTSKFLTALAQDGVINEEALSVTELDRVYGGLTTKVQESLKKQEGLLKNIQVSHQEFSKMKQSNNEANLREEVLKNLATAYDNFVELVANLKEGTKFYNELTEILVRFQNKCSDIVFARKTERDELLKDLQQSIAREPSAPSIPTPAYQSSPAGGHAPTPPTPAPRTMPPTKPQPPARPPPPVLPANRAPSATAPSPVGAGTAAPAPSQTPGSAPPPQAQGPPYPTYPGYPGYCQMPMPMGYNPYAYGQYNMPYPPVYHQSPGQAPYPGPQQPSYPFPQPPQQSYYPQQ
# B1: ALG-2 (endogenous, HEK293 cells) (natural protein, human (endogenous in HEK293), UniProt O75340 1-191, looked up)
# chain: MAAYSYRPGPGAGPGPAAGAALPDQSFLWNVFQRVDKDRSGVISDTELQQALSNGTWTPFNPVTVRSIISMFDRENKAGVNFSEFTGVWKYITDWQNVFRTYDRDNSGMIDKNELKQALSGFGYRLSDQFHDILIRKFDRQGRGQIAFDDFIQGCIVLQRLTDIFRRYDTDQDGWIQVSYEQYLSMVFSIV
# notes: also called endogenous ALG-2; apoptosis-linked gene-2 product; source: endogenous, HEK293 membrane and soluble fractions and 0.1% Triton X-100 lysate
# Target: T1, ALIX (endogenous, HEK293 cells)
# Test: co-IP; 0.1% Triton X-100-solubilized HEK293 cell lysates, 10 μM CaCl2 added; control and EGF-stimulated cells (Supplementary Figure S3A)
# Settings: partners not purified
binder,measurement,value
B1,fold more ALG-2 interacting with ALIX in EGF-stimulated cells than in control cells,3.5 fold
